Results: paper PMC10897456, “B. subtilis MutS2 splits stalled ribosomes into subunits without mRNA cleavage” (The EMBO Journal, 2023)

How the values were obtained:
Test in all cases: cryo-EM structure; reconstituted complex: His-MutS2 WT in tenfold excess over purified B. subtilis disomes, 50 mM HEPES/KOH pH 7.5, 75 mM KOAc, 5 mM Mg(OAc)2, 45 mM NH4Cl, 4 mM MgCl2, 1 mM MnCl2, 1 mM AMP-PNP, 30 °C for 1 h; 3.8 Å
Settings in all cases: both partners purified
ribosomal protein uS10 = ribosomal protein uS10 (B. subtilis (endogenous in B. subtilis …, UniProt P21471 1-102))
ribosomal protein uS11 = ribosomal protein uS11 (B. subtilis (endogenous in B. subtilis …, UniProt P04969 1-131))
ribosomal protein uS7 = ribosomal protein uS7 (B. subtilis (endogenous in B. subtilis …, UniProt P21469 1-156))

Measured: binding result

B1: His-MutS2 WT (recombinant B. subtilis MutS2) (natural protein)
chain: MQQKVLSALEFHKVKEQVIGHAASSLGKEMLLELKPSASIDEIKKQLDEVDEASDIIRLRGQAPFGGLVDIRGALRRAEIGSVLSPSEFTEISGLLYAVKQMKHFITQMAEDGVDIPLIHQHAEQLITLSDLERDINSCIDDHGEVLDHASETLRGIRTQLRTLESRVRDRLESMLRSSSASKMLSDTIVTIRNDRFVIPVKQEYRSSYGGIVHDTSSSGATLFIEPQAIVDMNNSLQQAKVKEKQEIERILRVLTEKTAEYTEELFLDLQVLQTLDFIFAKARYAKAVKATKPIMNDTGFIRLKKARHPLLPPDQVVANDIELGRDFSTIVITGPNTGGKTVTLKTLGLLTLMAQSGLHIPADEGSEAAVFEHVFADIGDEQSIEQSLSTFSSHMVNIVGILEQVNENSLVLFDELGAGTDPQEGAALAMSILDDVHRTNARVLATTHYPELKAYGYNREGVMNASVEFDIETLSPTYKLLIGVPGRSNAFEISKRLGLPDHIIGQAKSEMTAEHNEVDTMIASLEQSKKRAEEELSETESIRKEAEKLHKELQQQIIELNSKKDKMLEEAEQQAAEKVKAAMKEAEDIIHELRTIKEEHKSFKDHELINAKKRLEGAMPAFEKSKKPEKPKTQKRDFKPGDEVKVLTFGQKGTLLEKTGGNEWNVQIGILKMKVKEKDLEFIKSAPEPKKEKMITAVKGKDYHVSLELDLRGERYENALSRVEKYLDDAVLAGYPRVSIIHGKGTGALRKGVQDLLKNHRSVKSSRFGEAGEGGSGVTVVELK
notes: MutS2 of B. subtilis (87 kD); core/lever, clamp, P-loop ABC ATPase, KOW and SMR domains; SMR domain printed as residues 710-785; SEC: oligomer, consistent with a dimer or tetramer; the text calls it a homodimer on the disome; Only the KOW and SMR domains are resolved in the structure (AlphaFold2 models fitted as rigid bodies); also called RqcU; source: E. coli BL21(DE3), pET24d(+), purified …
binds: all assays above
